± gives the standard error. For some of these results: Variants at the floor of the assay were thinned out.
B1: glmS ribozyme (parent)
chain: AUAAAAGCGCCAGAACUACAGAAAUGUAGUUGACGAGGAGGAGGUUUAUCGAAUUUUCGGCGGAUGCCUCCAAA

Experiments:
Conditions in all cases: with glucosamine-6-phosphate
glucosamine-6-phosphate [1] = variants of: B1; assay: KM; higher = weaker cofactor use; RNA array
Method in brief: (§1)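 A hybridised Cy3 probe tracked barcoded ribozyme variants, transcribed in situ by E. coli RNA polymerase on sequenced MiSeq chips, at 37 °C. The variants received 40 μM to 10 mM glucosamine-6-phosphate in HEPES/KCl/Mg(OAc)2 buffer. kobs came from decay fits and kcat and KM from weighted Michaelis–Menten fits.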

glucosamine-6-phosphate [2] = variants of: B1; assay: self-cleavage kobs at 40 uM GlcN6P; higher = faster cleavage; RNA array
Method in brief: as §1

glucosamine-6-phosphate [3] = variants of: B1; assay: self-cleavage kobs at 160 uM GlcN6P; higher = faster cleavage; RNA array
Method in brief: as §1

glucosamine-6-phosphate [4] = variants of: B1; assay: self-cleavage kobs at 10000 uM GlcN6P; higher = faster cleavage; RNA array
Method in brief: as §1

glucosamine-6-phosphate [5] = variants of: B1; assay: self-cleavage kobs at 640 uM GlcN6P; higher = faster cleavage; RNA array
Method in brief: as §1

glucosamine-6-phosphate [6] = variants of: B1; assay: kcat; higher = faster cleavage; RNA array
Method in brief: as §1

glucosamine-6-phosphate [7] = variants of: B1; assay: self-cleavage kobs at 2500 uM GlcN6P; higher = faster cleavage; RNA array
Method in brief: as §1

| Variant | KM (glucosamine-6-phosphate [1]) | self-cleavage kobs at 40 uM GlcN6P (glucosamine-6-phosphate [2]) | self-cleavage kobs at 160 uM GlcN6P (glucosamine-6-phosphate [3]) | self-cleavage kobs at 10000 uM GlcN6P (glucosamine-6-phosphate [4]) | self-cleavage kobs at 640 uM GlcN6P (glucosamine-6-phosphate [5]) | kcat (glucosamine-6-phosphate [6]) | self-cleavage kobs at 2500 uM GlcN6P (glucosamine-6-phosphate [7]) |
| --- | --- | --- | --- | --- | --- | --- | --- |
| U65C C68G | 418 ± 130 µM |  |  |  |  |  |  |
| G32C G37C A48U G59C |  | < 1e-05 s⁻¹ |  |  |  |  |  |
| G51U G62U |  | < 1e-05 s⁻¹ | < 1e-05 s⁻¹ | < 1e-05 s⁻¹ |  |  |  |
| A42U G51A |  | < 1e-05 s⁻¹ |  |  | < 1e-05 s⁻¹ |  |  |
| U30C C50G U69A |  | 0.000101 ± 1.6e-05 s⁻¹ |  | 0.000171 ± 2.6e-05 s⁻¹ |  |  |  |
| G32U G63A |  |  |  | < 1e-05 s⁻¹ | < 1e-05 s⁻¹ | < 1e-05 s⁻¹ | < 1e-05 s⁻¹ |
| A15U A48U |  |  | < 1e-05 s⁻¹ | 4.87e-05 ± 9.2e-06 s⁻¹ |  | 0.000133 ± 4.2e-05 s⁻¹ |  |
| A33G C50A A53C G60C |  | < 1e-05 s⁻¹ |  |  |  |  |  |
| G9A C10G G13U A48U G51U G66C |  | < 1e-05 s⁻¹ |  |  |  |  |  |
| C16U U55G C68U | 507 ± 230 µM | 0.000134 ± 2.4e-05 s⁻¹ | 0.000342 ± 0.00016 s⁻¹ | 0.00354 ± 0.00087 s⁻¹ | 0.00106 ± 0.0003 s⁻¹ |  | 0.00118 ± 0.00028 s⁻¹ |
| G40A U65G | 2990 ± 340 µM | 3.72e-05 ± 1.4e-05 s⁻¹ |  | 0.00192 ± 0.00028 s⁻¹ | 0.000421 ± 0.0001 s⁻¹ | 0.00247 ± 0.00015 s⁻¹ | 0.00107 ± 0.00028 s⁻¹ |
| G7C G38U |  | < 1e-05 s⁻¹ | < 1e-05 s⁻¹ | < 1e-05 s⁻¹ | < 1e-05 s⁻¹ |  |  |
| U46C U54G | 1370 ± 200 µM | 9.45e-05 ± 1.5e-05 s⁻¹ |  | 0.00287 ± 0.0004 s⁻¹ | 0.000997 ± 0.00031 s⁻¹ | 0.00333 ± 0.00031 s⁻¹ | 0.00284 ± 0.00085 s⁻¹ |
| A39U G62U |  | < 1e-05 s⁻¹ |  | < 1e-05 s⁻¹ |  |  |  |
| G41A C50A C67G |  | < 1e-05 s⁻¹ |  | < 1e-05 s⁻¹ |  |  |  |
| G44A A48U C67A |  | < 1e-05 s⁻¹ |  | 0.000216 ± 5.2e-05 s⁻¹ |  |  |  |
| G7U G51A G62A C70U |  |  |  |  |  | 1.17e-05 ± 2.6e-06 s⁻¹ |  |
| C58A C68U | 2100 ± 790 µM |  | 3.66e-05 ± 1e-05 s⁻¹ | 0.000251 ± 2.3e-05 s⁻¹ | 6.75e-05 ± 7e-06 s⁻¹ | 0.000273 ± 5.2e-05 s⁻¹ | 0.000129 ± 1.2e-05 s⁻¹ |
| A15U A33G G38C G40C C68U |  | < 1e-05 s⁻¹ |  | < 1e-05 s⁻¹ |  |  |  |
| C61A C67U |  |  | 2.79e-05 ± 1.1e-05 s⁻¹ |  | 6.41e-05 ± 1.4e-05 s⁻¹ | 4.47e-05 ± 1.3e-05 s⁻¹ | 4.8e-05 ± 9.3e-06 s⁻¹ |
| A15C G32U A42U |  | < 1e-05 s⁻¹ |  | < 1e-05 s⁻¹ |  |  |  |
| G7U A14G G32C A39U |  | < 1e-05 s⁻¹ |  |  |  |  |  |
| G7A G38C |  | < 1e-05 s⁻¹ | < 1e-05 s⁻¹ | < 1e-05 s⁻¹ | < 1e-05 s⁻¹ |  | < 1e-05 s⁻¹ |
| A14U A42G | 2710 ± 1300 µM | 0.000273 ± 3.1e-05 s⁻¹ | 0.00064 ± 0.00015 s⁻¹ | 0.0147 ± 0.0018 s⁻¹ | 0.00347 ± 0.00055 s⁻¹ | 0.0156 ± 0.0054 s⁻¹ | 0.00517 ± 0.001 s⁻¹ |

| Variant | KM (glucosamine-6-phosphate [1]) | self-cleavage kobs at 40 uM GlcN6P (glucosamine-6-phosphate [2]) | self-cleavage kobs at 160 uM GlcN6P (glucosamine-6-phosphate [3]) | self-cleavage kobs at 10000 uM GlcN6P (glucosamine-6-phosphate [4]) | self-cleavage kobs at 640 uM GlcN6P (glucosamine-6-phosphate [5]) | kcat (glucosamine-6-phosphate [6]) | self-cleavage kobs at 2500 uM GlcN6P (glucosamine-6-phosphate [7]) |
| --- | --- | --- | --- | --- | --- | --- | --- |
| C34A G37C A48C |  | < 1e-05 s⁻¹ |  | < 1e-05 s⁻¹ |  |  |  |
| U30C G40A | 3260 ± 1400 µM | < 1e-05 s⁻¹ |  | 7.27e-05 ± 1.2e-05 s⁻¹ |  | 9.74e-05 ± 1.5e-05 s⁻¹ | 4.56e-05 ± 1.3e-05 s⁻¹ |
| A15U U30C G51C |  | < 1e-05 s⁻¹ |  |  |  |  |  |
| C10U G35U A39U A48G |  | < 1e-05 s⁻¹ | < 1e-05 s⁻¹ | < 1e-05 s⁻¹ | < 1e-05 s⁻¹ |  | < 1e-05 s⁻¹ |
| G21A G44U U57G C67A |  | < 1e-05 s⁻¹ |  |  |  |  |  |
| A6G C70U |  | < 1e-05 s⁻¹ | < 1e-05 s⁻¹ |  |  |  |  |
| A6C G29U G32A U57A |  | < 1e-05 s⁻¹ |  | < 1e-05 s⁻¹ | < 1e-05 s⁻¹ |  |  |
| G38U A39G | 2660 ± 1000 µM |  |  |  |  |  |  |
| C10U A33G C70U |  | < 1e-05 s⁻¹ |  | < 1e-05 s⁻¹ |  |  |  |
| A14G U31C G41C G63A |  | < 1e-05 s⁻¹ |  | < 1e-05 s⁻¹ |  |  |  |
| A48U C50G G59U G66U |  |  | < 1e-05 s⁻¹ |  |  | 1.53e-05 ± 4.3e-06 s⁻¹ |  |
| C11U U31C A52U |  |  |  |  |  | < 1e-05 s⁻¹ |  |
| A6G G40U A48C G62A U65G |  | < 1e-05 s⁻¹ |  | < 1e-05 s⁻¹ |  |  |  |
| A53U U69G |  |  | 6.15e-05 ± 1.2e-05 s⁻¹ | 4.84e-05 ± 1.2e-05 s⁻¹ | 4.69e-05 ± 1.2e-05 s⁻¹ | 6.8e-05 ± 1.2e-05 s⁻¹ | 8.29e-05 ± 9.4e-06 s⁻¹ |
| A33U U47A U54C |  | < 1e-05 s⁻¹ |  | 7.82e-05 ± 1.8e-05 s⁻¹ |  |  | 4.24e-05 ± 2e-05 s⁻¹ |
| A48G C68A |  | < 1e-05 s⁻¹ |  |  |  | 1.35e-05 ± 5e-06 s⁻¹ |  |
| A15U G38A U56C |  | < 1e-05 s⁻¹ |  |  |  |  |  |
| A6G G38U U54C |  | < 1e-05 s⁻¹ |  |  | < 1e-05 s⁻¹ |  | < 1e-05 s⁻¹ |
| C8G U56G C70U C71A |  | < 1e-05 s⁻¹ | < 1e-05 s⁻¹ |  | < 1e-05 s⁻¹ |  | < 1e-05 s⁻¹ |
| G7A C34U C70G |  |  |  |  |  | 1.85e-05 ± 9.1e-06 s⁻¹ |  |
| G9U A12U A33G G40U |  | < 1e-05 s⁻¹ |  |  |  |  |  |
| C58U C61G |  |  |  |  | 5.03e-05 ± 1.4e-05 s⁻¹ | 3.19e-05 ± 9.4e-06 s⁻¹ | 2.9e-05 ± 1.3e-05 s⁻¹ |
| U46G U54C |  | 0.00019 ± 3.4e-05 s⁻¹ |  | 0.00687 ± 0.0018 s⁻¹ |  |  |  |
| A33U G43A |  | < 1e-05 s⁻¹ | < 1e-05 s⁻¹ | < 1e-05 s⁻¹ | < 1e-05 s⁻¹ |  | < 1e-05 s⁻¹ |
